Experimental data: the nanobody polyreactivity screen of Harvey et al. (2022)

test: yeast display, Sf9 membrane polyspecificity reagent, FACS + sequencing; frameworks hold sequencing errors
Outline: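 Nanobodies came from a synthetic yeast display library in Saccharomyces cerevisiae BJ5465, induced with galactose for 36–48 hours and stained for 1 hour at 4 °C with 10% biotinylated, detergent-solubilized Sf9 membrane reagent. Cells were enriched on streptavidin microbeads and then FACS-sorted, with low and high (top ~1%) gates set on anti-HA fluorescence for expression and streptavidin fluorescence for reagent binding. Each polyreactivity label reflects the gate a clone came from. Genes were amplified by colony PCR, sequenced by MiSeq 2 × 250 and filtered by CDR length.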

| Sequence | polyreactivity (PSR sort gate) |
| --- | --- |
| HVQLVESGGGLVQAGGSLRLSCAASGFISVRNGMGWYRQAPGKERELVAAITGSGGSTYYADSVKGRFTISRDNAKNTVYLQMNSLKPEDTAVYYCARTYTVSRKRMGYWGQGTQVTVSS | high polyreactivity |
| HVQLVESGGGLVQAGGSLRLSCAASGGIFFDNAMGWYRQGPGKERELVAAIRGDSGSTYYADSVKGRFTISRDNAKNTVYLQMNSLKPEDTAVYYCAAALRDYYPGGEYYSQYEYWGQGTQVTVSS | low polyreactivity |
| HVQLVESGGGLVQAGGSLRLSCAASGITFASYGMGWYRPAPGKDRELVAAISQRGGRTYYADSVKGRFTISRDNAKNTVYLQMNSLKPEDTAVYYCARTVGYRTLLESDSWGQGTQVTVAS | high polyreactivity |
| HVQLVESGGGLVQAGGSLRLSCAASGITLVRYAMGWFRPAPGKERELVAAISSSGGSTYYADSVKGRFTISRDNAKNTVYLQMNSLQPEDTAVYYCNAYVHSRRVEFNYWGQGTQVTVSS | high polyreactivity |
| HVQLVESGGGLVQAGGSLRLSCAASGRIFLIYAMGWYRQAPGKEWELFAAIRSGGSTNYADSVKGRFTISRDNAKNTVYLLMNSLNPEDTAVYYCAVRSRVYPSRVKYDYWGQGTQVTVSS | high polyreactivity |
| HVQLVESGGGLVQAGGSLRLSCAASGRIFWYYTMGWSRQAPGKERELVASINSDSGTYYADSVKGRFTISRDNAKNTVYLQMNRLKPEDTAVYYCTRDSESDANTFTTSGIDEPYDYWGQGTQVTVSS | low polyreactivity |
| HVQLVESGGGLVQAGGSLRLSCAASGRIFYIYAMGWYRQAPGKERELVAGIRSRGGSTYYADSVKGRFTISRDNAKNTVYLQMNSLKPEDTAVYYCTTEIWGVNSSGYDYWGQGTQVTVSS | low polyreactivity |
| HVQLVESGGGLVQAGGSLRLSCAASGRILYGNAMGWYRKAPGKDRELVAAISWRADSTYYADSVKGRFTISRDNAKNTVYLQMNSLKPEDTAVYYCAADGNYRRHYWGQGTQVTVSS | high polyreactivity |
| HVQLVESGGGLVQAGGSLRLSCAASGRTFFRYVMGWYRQAPGKERELVAAISRSGGSTYYADSVKGRFTISRDNAKNTFYLQMNSLKPEDTAVYYCAASAGPRASYYYWGQGTQVTVSS | high polyreactivity |
| HVQLVESGGGLVQAGGSLRLSCAASGRTFYRYAKGWYRQAPGKEREFVAAISRSGGSTYYAVSVKGRFTISRDNAKNTVYLQMNSLKPEDTAVFYSNKYYWYPYGRAHDYGYWGQGTQVTVSS | high polyreactivity |
| HVQLVESGGGLVQAGGSLRLSCAASGSIFADNAMGWYRQAPGNERELVAAISRTGGSTYYADSVKGRFTISRDNAKNTVYLQMNSLKPEDTAVYYCAADNGYGRYRRYYYWGQGTQVTVSS | high polyreactivity |
| HVQLVESGGGLVQAGGSLRLSCAASGSIFVPNAMGWYRQALGKERELVAAITYSGGDTYYADSVKGRVTISRDNAMNTVYLQMNSLKPEDTAVYYCAADNGRVGYDYWGQGTQVTVSS | low polyreactivity |
| HVQLVESGGGLVQAGGSLRLSCAASGSIYHIYSMGRYRQAPGKERELVAAISFSGGSTYYADSVKGRFTISRDNAKNTVYLQMNSLKPEDNAVYYCAADVYWLPYYYWGQGTLVTVSS | high polyreactivity |
| HVQLVESGGGLVQAGGSLRLSCAASGSTFAGNAMGWYRQAPGKEWELVAAIDSSTGSTYYADSVKGRFTISRDNAKNTVNLQMNSLKPEDTAVYYCNKTSFLVKLDYWGQGTQVTVSS | low polyreactivity |
| HVQLVESGGGLVQAGGSLRLSCAASGSTIGRYAIGWYRQAPGEERELVAAISYSGGSTYYADSVKGRFTISRDNAKNTVYIQMNSLKPEDTAAYYCAKGLSTGRAYRGYDYWGQGTQVTVSS | high polyreactivity |
| HVQLVESGGGLVQAGGSLRLSCAASGSTLYSYAMGWYRQAPGKARELVAAISIGDSTNYADSVKGRFTISRDNAKNTVYLQMNSLKPEDTAVYYCNADRALGYYVVVFIFEYWGQGTQVTVSS | low polyreactivity |
| HVQLVESGGGLVQAGGSLRLSSTASGSTFGYYAMGWNRQAPGKERELVAAISGIGGSTYYADSVKGRFTISRDNAKNTVYLQMNSLKPEDTAVYFCAADLYYVTWDYNYWGQGTQVTVSS | low polyreactivity |
